One block for each molecule: values may come before it.
Tests used:
[1] = molecular target: haptoglobin Hp(1-1) (human) (UniProt P00738); experiment: MST; Monolith NT.115, 25 °C, 20 mM HEPES pH 7.5, 150 mM NaCl, […] CaCl2; Alexa Fluor 647-labelled Hb (200 nM) or Hp(1-1) (500 nM or 1.0 μM) held constant, CD163 ectodomain (WT or R809T-BAP) titrated
[2] = molecular target: CD163 ectodomain (CD163-WT) (human) (UniProt Q86VB7)
[3] = molecular target: T1, CD163-WT ectodomain (C-tag, without BAP tag) (human, UniProt Q86VB7-1 46-1050); experiment: MST; Monolith NT.115, 25 °C; 20 mM HEPES pH 7.5, 150 mM NaCl, 2.5 mM CaCl2; fluorescent Hb (200 nM) or Hp(1-1) (0.50 µM) mixed with two-fold dilution series of CD163 (WT from 24.4 or 37.9 µM, R809T from 41.5 µM); fit to the combined triplicate; conditions: both partners purified
T1 construct: Cloned into pHLsec with a C-terminal GAA linker and a C-tag; Dimers and trimers in the cryo-EM structures; also called WT CD163; CD163A

- Kd [1]: 27 µM
Molecule: CD163 ectodomain (CD163-WT) (from UniProt Q86VB7-1 46-1050) (domain or fragment)

- IC50 of competition for the uptake of 50 nM labelled Hp(2-2)Hb into HEK293 cells expressing full-length CD163-GFP, FACS [2]: 0.04 µM
- uptake of fluorescently labelled Hp(2-2)Hb (0-600 nM) into HEK293 cells with or without full-length CD163-GFP (residues 46-1156), FACS [2]: 10 fold
Molecule: Hp(2-2)Hb (haptoglobin isoform 2 - haemoglobin complex) (from UniProt P00738-1 19-160; P00738-1 162-406)

- Kd [3]: 26.6 µM
B1: Haptoglobin Hp(1-1), fluorescently labelled (natural protein)
chain 1: VDSGNDVTDIADDGCPKPPEIAHGYVEHSVRYQCKNYYKLRTEGDGVYTLNNEKQWINKAVGDKLPECEAVCGKPKNPANPVQ
chain 2: ILGGHLDAKGSFPWQAKMVSHHNLTTGATLINEQWLLTTAKNLFLNHSENATAKDIAPTLTLYVGKKQLVEIEKVVLHPNYSQVDIGLIKLKQKVSVNERVMPICLPSKDYAEVGRVGYVSGWGRNANFKFTDHLKYVMLPVADQDQCIRHYEGSTVPEKKTPKSPVGVQPILNEHTFCAGMSKYQEDTCYGDAGSAFAVHDLEEDTWYATGILSFDKSCAVAEYGVYVKVTSIQDWVQKTIAEN
modifications: Alexa Fluor 647 (NHS ester labelling of the protein; sites not stated) | Alexa Fluor 647 (NHS ester labelling of the protein; sites not stated)

Source: paper PMC12274614, “Scavenger receptor CD163 multimerises to allow uptake of diverse ligands” (Nature Communications, 2025)
